This data set in a line: soluble on expression in E. coli; label from the status in PepcDB or PDB records.
For “MGSDKIHHHHHHMTYAVGDIHGCFYALKSLLEKLPLSEEDELIFMGDYVDRGPNSREVIEFLIELSKHHRCIFLRGNHEEMLLNCVKNGSDCDLWFFNGARSTVESFGGVEEIKKFLPFFENTVYHYEKENYVFVHGGVRPGVSLEDQDPFDLVWIRDEFIYSENPLPGKIVVFGHTPFEEPFVSRDKIGIDTGCVYGGRLTALRVEDRKFFQVECANRRW”, the “soluble on expression in E. coli” value is listed as “not soluble”.

On to “MDVLPGRPRARRRRRRRQSRANILAIGVHLPRLRLSRGAMANALGWLSGGAGAGKGSRTLAYWDEDSVTMAVAAARHALARQAAPAIDALQFASTTPPFAEPQNAAFVRAALRLPATTLTQDVHGTPRAGLLALHMALESGTRTLVAAADLPTALPGSTAEARAGDGGAAVLTGDEPGLLRYLGGASLSAPFTDRYRAAGHDYPQEWEERWLREAGYLELVHDAIGRALQAASLRPEQVDHFVLPCPVPGVAAAVAAKAGLGQARLASALAENCGDTGAAHAFVMLGRALEDAAPGQKVLVAQFGQGATALLFEADEAVAGLAAPVSPALRDGLAEDNYMKLLAFRGRIAWDRGLRGRFLVNEALSTAWRNADALLDFVGGRCRETGQVQFPPTRLAATGGFHLDTQEPWPLADRGGRIATFTADLLAFSPCPPNCYGLVDIDGGGRVLMEFTDPQASQLEAGAAVAFALRIKDLDPQTGYRRYFWKALAAPTAD”, for which the “soluble on expression in E. coli” value is given as “not soluble”.

In the case of “MRKKDAYISQVKVRQDPVNQLAVEMRAKRFGLTIEEAKNPLAGSYVGRLCLQGVLTQDQYDATQKYLEVRNDYSCAKGLPSAVYDEKPSSSDDKAREKWVERATEQFCNTQKVLKEAQCLYRQHNLYAALQYLVMEDQELPHLVNALRIALNTLQKYFDPKSKWEMFYCYEKLLKNR”, the “soluble on expression in E. coli” value is listed as “not soluble”.

Take “MKLASLKSTRSRDGELCIVNRLLTAAIRVPHIASTLQYALDHWDVVEPKLQLVYQQLNDNQIEDAFAFAPELCASPLPRAYQWADGSAYVNHVELVRKARGAEMPADFWTNPLMYQGGSDAFLGPRDPILVSSEAYGIDFESEVAVITDDVPMGIDHTNAAHHIKLLMLVNDVSLRNLIPEELAKGFGFFQSKPASSFSPVAITPDELGSYWDGQRVNLPLISHLNEQLFGQPNAGVDMTFSFPELIQHAAKTRFLTAGTIIGSGTVSNLDRSKGSSCIAEKRMLEMIEFGQAKTPFMRFGDRIRIEMLDGQGYSLFGSIDQIVTKYDKDSL”: the “soluble on expression in E. coli” value was “not soluble”.

As for “SLINNLSTHSYWPNRGQLEVQGLTVKYTEAGRAVLNDISFSVDGGQSVGLLGRTGSGKSTLLSALLGLNYTEGEMFIDGVSSSSMPLQAWRKAFGVVPQKVFILTGTFRMNLDPYGRYSDDELWRVAEEVGLKSVIEQFPDKLDFELKDGGSVLSNGHKQLMCLARSILSKARILLLDEPSSYLDPITLQVLRKTLKQSFSGCTVILSEAKVEPLLECDSFLMIEKSSVKSYDSIQKLMNEMSHLKQAISPAD”, the “soluble on expression in E. coli” value is given as “soluble”.

With “TVESNWGGAILIGSDFDTVSATANVPSASGGSSAAGTAWVGIDGDTCQTAILQTGFDWYGDGTYDAWYEWYPEVSDDFSGITISEGDSIQMSVTATSDTSGSATLENLTTGQKVSKSFSNESSGSLCRTNAEFIIEDFEECNSNGSDCEFVPFASFSPAVEFTDCSVTSDGESVSLDDAQITQVIINNQDVTDCSVSGTTVSCSYV”, the “soluble on expression in E. coli” value was “soluble”.

Regarding “NIEQGLYAMLGVYVSSKTIDVVQVGFNRSKMALIITKQEQAVKEAVLQKIDRGVTKISAVGGYTDDDRPILMCVVGQTEFTKLKQIVKQIDESAFVIVADASEVLGEGFKRA”, the “soluble on expression in E. coli” value is “not soluble”.

Regarding “MGSDKIHHHHHHMKVKLLSALNDNNVDMAQTNSQRQLAMTIFAIAGEFDQNLPLNLCLILDRSGSMHGQPIKTVIQAVEGLIDRLKVGDRISVVAFSGSVEVIIPNQVIEDPESIKSQIKSKLSASGGTAIAEGLELGITELMKGTRGAVSQAFLLTDGHGESSLRIWKWDIGRDDNKRCLKLAQKAAKLNLTINTFGFGNSWNQDLLEKIADVGGGTLAHIEHPEQAVEQFSRLFGRIQSIGLTNAYLLLSLVPNVRLAELKPIAQVAPDTIELPVERETDGSFAVRLGDLMQDVERVVLANIYLGQLPEGKQAIGHLQIRYDDPMVNQEDLLSPLMPIYADVVRAYQPASNPQVQQSILALAKYRQTQLAEAKLLQGDRTGAATMLQTAAKTALQIGDKGAATVLQTSATRLQAGEELSEADLKKTRIVSKTVLQE”, the “soluble on expression in E. coli” value is “not soluble”.

Regarding “RLHRLPRDCQELFQVGERQSGLFEIQPQGSPPFLVNCKMTSDGGWTVIQRRHDGSVDFNRPWEAYKAGFGDPHGEFWLGLEKVHSITGDRNSRLAVQLRDWDGNAELLQFSVHLGGEDTAYSLQLTAPVAGQLGATTVPPSGLSVPFSTWDQDHDLRRDKNCAKSLSGGWWFGTCSHSNLNGQYFRSIPQQRQKLKKGIFWKTWRGRYYPLQATTMLIQPMAAEAAS”, the “soluble on expression in E. coli” value is reported as “soluble”.

Regarding “MIGMMNSGAESSVEFYAAARQSSLYEPRKKSSQSRTYTPEGRVLVNGAPLSPTLDPQDLWKNMIIKTAAQKMIRENCEKKETGPMATIRRLSEKLKLKKSKSSAAMMNLDLDLDQKIPEVSEIESSSTTAVPQSPQQFVTNIRIEEANPVFFVQQSESLDRPHMLFEETSVLARLLEESSQIDKMEKDFAEKDSGKGSIDDDSVVVHKL”, the “soluble on expression in E. coli” value is reported as “not soluble”.

In the case of “SLTPLRVLIVEDDPRIAQLHQRFCEKVAGFEVSGLAATYEEADELATILEPDLLLLDLYLPDGNGMDLLRQLRSRGQEVDVVLITAAKDVAAVQQALRAGAFDYIVKPAVFARFEEALTKFAAYRQQLEQGDVLNQNDIDQLLHSHHQPKVMDRGAVPKGIDPLTLTKIRQVFADQEQQGLSAEEVGAQIGASRSTARRYLEYMVSISELTADVVYGTVGRPERRYFSFENEG”, the “soluble on expression in E. coli” value is “soluble”.

For the sequence “MSLNFHDVRFPPSLSFGSLGGPQRRTDVVTLANGYEERNTPWAHSRRVYDAGLGMRSIDDVQALTGFFEARMGQMYGFRWKDWADFKSCASSVGVTFEDQSLGFGDGVRTDYQLVKTYSSGGHSYVRPITKPVAGTVRVGIEQDALQEGSDYEVDLSTGIIRFAHAPDPEMQVSAGFEFDVPVRFDTDRILVSVASFQAGQVPDVPVIEVRVEGHHHHHH”, the “soluble on expression in E. coli” value was “soluble”.

Take “MVESTRVRSKRLSFSGKKTLSSFMQVNIASLRQSGKLRTSETYRATLNSFMKFMDGKDVLLSNMDAELMMGYETYLKAQGASMNTVSFYMRILRATYNRAVDKGVIRQRFPFKHVYTGVEKTVKRAISFKVIRQLKEMDLSHSQSMEFARDMFMFSFYTRGMSFVDMAFLKKTDLNNGMLTYRRKKTGQLLSIRWEKCMQDIVDKYPGNYSTYLLPIIIHIRKDERLQYKNSICLVNRRLKEIGKKLGLVHPLTMYVARHSWASVARGKHIPLSVISEGMGHDSEKTTLIYLAALDTTVIDKANMVVLREFL”: the “soluble on expression in E. coli” value was “not soluble”.

On to “MKQKIVLATGNKGKVKEMADVLSDFGFEVIAQTDLGIESPEETGLTFVENALLKARYASEKSGLPAIADDSGLVVSALNGAPGLYSARYAGEEGNDAKNREKLLAELAHIAQEQRQAKFVSCIVFLQHPTDPSPIIAEGECCGVIGFEEKGENGFGYDSLFFSPEQGCTFAELETAEKKKISHRAKALSVLKSKL”, for which the “soluble on expression in E. coli” value is given as “not soluble”.

In the case of “MNKLLSYYQKELAFLRKQGIEFAKKYPKVARRLGYNQGGSEDPHVQRLTESFAFLSSKIHQRLDEDLPELMEALLRNLAPQFLYNYPSSCIVSFEPDRKSSGITSTYRVPSGTSLYSRYKYKTICQFRTVYPLTIVPATVNKARIHYDNSSSLWKIELNLDVFDGANFSLDFVRFYLNGPATVTGIIYTLLCDEVDNIVLQRNNDVLYDISANISGAGFYESEVTLPQKGNVSYIHNLILDYFSFPERFNFIDIEFDSGIELCSGDSVRIEITLKSSAEKYEPDRIERNVSERLFKVNCSPVVNLFEKKTEPLRLSDGQDEYQVNTDLYSRNEVLIWDINKVTLHRYENDIVKQFPLKNLFGLEHSVIKQSCNIFWHSSCYRSSSERGNFEESVYIRLSDDGGAQSCIMTGDVLSIDAICTNGNIPSSINNGDPDGDFDCDIDIAQLRITALNRPSRMLPAMALKGMNWRIVSQLSLNFVLLSGTDGAMKLREMLSIYNYNNNHSISIFIEWIKELQITPVSSRLPGIYPPVTARGIDITVTLSKDADMHPECFMFCSFLDHFLGLHAPVNSFTRMITVIEHEEHTRRVWPIRAGKLTWL”, the “soluble on expression in E. coli” value is on record as “not soluble”.

For “MLPTILALLLAPLATALPPTIIRSPKVTGWGWWSEMESCPPGYFAHGMRIKYERDSGSLDETGLNAIELACKNRAVPSSGDTYIKGAEGVFGGWQAYQYCPQGEYVIGFALQSESWRGGNKDDVAANNFAAYCGRPEAPRRRYSWIQGSVNERGSWTRDQFCPARQIVCGIIVQIEPAQAPHVDDASLDSVGLKCCDF”, the “soluble on expression in E. coli” value is “not soluble”.

In the case of “MEKKPWEEDISIEEFKKSLNKDKITNLIIKRRWNKGKSTYHLSFNGDFEVVTKKPSTKYVTHKQLDQKLKEFKQDLMVELHDTFATKADLRDSEARINQKLEALVQVVLLHGEQINKLTQIVEKQGEQIRELQVEQKAQRQEFNARMDRLENLLVESIESTNKRFDSIEGRLDSMDSRLDSMENRLDSIEGRLDSVEGRLDSVEGRLDSMENRLDSMETRLDKIDPPK”, the “soluble on expression in E. coli” value is “soluble”.

With “EDPLAKKQTVRLIKDLQRAINKVLCTRLRLSNFFTIDHFIQKLHTARKILVLTGAGVSTSLGIPDFRSSEGFYSKIKHLGLDDPQDVFNYNIFMHDPSVFYNIANMVLPPEKIYSPLHSFIKMLQMKGKLLRNYTQNIDNLESYAGISTDKLVQCHGSFATATCVTCHWNLPGERIFNKIRNLELPLCPYCYKKRREYFPEGYNNKVGVAASQGSMSERPPYILNSYGVLKPDITFFGEALPNKFHKSIREDILECDLLICIGTSLKVAPVSEIVNMVPSHVPQVLINRDPVKHAEFDLSLLGYCDDIAAMVAQKCGWTIPHKKWNDLKNKNFKCQEKDKGVYVVTSDEHPKTL”, the “soluble on expression in E. coli” value is recorded as “soluble”.

For “MAHHHHHHMTQSTIPLQSNIKISDRLEENSIDFCRFVGPFNRADEYAFTAPPWCQREGSENVPGSSLSTSVSAVFVLVSSPPNCGLVARFFCTKLLHYLLWCYKDAAFFLAGPSPRDFNVYRHEDDAAAWRKCMETCLAKSLEHVESARKRGTLTEPVVIVLADCESQAAYDTVHKMLGSMENLFVRHIWFGDSWRESNPVDCSYINVCLRQPAYRLTKCRGSSTCAKITSYLNSCLPTLHHIHLHEPLSGSPEETLRSGCPLFFTRHGQSEYNLEDRLGGDPDITPLGVDDALTLAEFFRDQVVRNPRLFATRDSIWDETEGFEVWCSQLKRTRHTAQPSADVLTNGNLKAFKMLNEIHAGVCEDMTANEVKEQYPSIQFFRHTDKAGFRYPNGESYHDLKRRLVPILYDLNATRKGILVVAHQAVLRAILSFFGGPPVEEAVHKPCAHRAVWCCTYNRLGEPRLSTITLRPRLQSSTEASTSVG”, the “soluble on expression in E. coli” value is reported as “not soluble”.

In the case of “LNIHVTIREATEGDLEQMVHMLADDVLGRKRERYEKPLPVSYVRAFKEIKKDKNNELIVACNGEEIVGMLQVTFTPYLTYQGSWRATIEGVRTHSAARGQGIGSQLVCWAIERAKERGCHLIQLTTDKQRPDALRFYEQLGFKASHEGLKMHF”, the “soluble on expression in E. coli” value is reported as “soluble”.

On to “MGSDKIHHHHHHMEPNDAVVGVDVSKEHLDVYLMPTGDQKRVTNDDAGCAELTTWLITNAPCRIVLEATGGLEMLAVSTLSAAGLPVVVVNPRQVRNFAKACGLLAKTDILDAKIIARFAQAIKPEIRPLKDETSQNLAALLARRRQLVEMLVAEKNRVISAAPTVRKGIMTHIAWLTQQIDDVDKDISTLIQSSESWKAKEEILTSVKGIGPVTAATILAALPELGTISRQQLGALVGVCPYNRDSGKFRGKRAISGGRATVRSVLYMATLCAARFNPVIKAFYQRLTSAGKLHKVAITACMRKLLTILNAMVKNNQKWDHSKFTPLLH”, for which the “soluble on expression in E. coli” value is listed as “not soluble”.

The values above are taken from the DeepSol protein solubility set.
